The target of assay [1] is PX domain of SNX5 (SNX5^PX) (UniProt Q9Y5X3). As to the kind of experiment: ITC; S4C Fig: approximately 0.5–1 mM of CI-MPR (aa21–48) WT or loop-deletion peptides titrated into SNX5^PX (50 μM); 100 mM HEPES pH 7.5, 300 mM NaCl, 2 mM βME, 25°C; one set of sites model; single values of triplicates. In general terms: Isothermal titration calorimetry measures the heat released or taken up as one component is titrated into another.

For assay [2] the target is unchanged. As to the kind of experiment: ITC; Fig 1D: approximately 2–3 mM of peptides titrated into SNX5^PX (300 μM); 100 mM HEPES pH 7.5, 300 mM NaCl, 2 mM βME, 25°C; one set of sites model; single values of triplicates.
Assay [3] has the same target. As to the kind of experiment: ITC; Fig 2B: CI-MPR (aa21–48) WT or alanine mutants titrated into SNX5^PX; 100 mM Hepes pH 7.5, 300 mM NaCl, 2 mM βME, 25°C; single values of triplicates.
Assay [4] deals with PX domain of SNX32 (SNX32^PX). As to the kind of experiment: ITC; S1B Fig: approximately 2–3 mM of CI-MPR (aa21–48) peptide titrated into approximately 100–300 μM of SNX5^PX, SNX6^PX or SNX32^PX; 100 mM HEPES pH 7.5, 300 mM NaCl, 2 mM βME, 25°C; one set of sites model; single values of triplicates.
The target of assay [5] is PX domain of SNX6 (SNX6^PX) (UniProt Q9UNH7). The assay is described as above.
Sequence of PX domain of SNX6 (SNX6^PX) (Q9UNH7 26-173): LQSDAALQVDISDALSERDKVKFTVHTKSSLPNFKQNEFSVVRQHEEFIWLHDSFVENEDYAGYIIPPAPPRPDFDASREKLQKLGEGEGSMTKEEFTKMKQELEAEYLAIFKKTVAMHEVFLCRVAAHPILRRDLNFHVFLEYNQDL
For assay [6], the target named is PX domain of SNX5 (SNX5^PX) (UniProt Q9Y5X3). The description is as above.
The target of a further assay is SNX6^PX (UniProt Q9UNH7). The assay can be described thus: ITC; approximately 2–3 mM CI-MPR (aa21–48) titrated into approximately 100–300 μM SNX5^PX, SNX6^PX or SNX32^PX; 100 mM HEPES pH 7.5, 300 mM NaCl, 2 mM βME, 25°C (S1B Fig).
Assay [7] addresses SNX5^PX (UniProt Q9Y5X3). Described as above.
The target of another assay is SNX32^PX. Described as above.
Assay [8] addresses SNX5^PX (UniProt Q9Y5X3). As to the kind of experiment: ITC; approximately 2–3 mM peptide titrated into SNX5^PX (300 μM) or the SNX3-retromer complex (10 μM Retromer + 100 μM SNX3); 100 mM HEPES pH 7.5, 300 mM NaCl, 2 mM βME, 25°C; one set of sites model (Fig 1D, 1E, 2B).
In assay [9] the target is SNX3-retromer complex (Retromer + SNX3) (UniProt Q96QK1). Described as above.
Assay [10] concerns the target SNX5^PX (UniProt Q9Y5X3). As to the kind of experiment: ITC; loop length: approximately 0.5–1 mM peptide titrated into SNX5^PX (50 μM); 100 mM HEPES pH 7.5, 300 mM NaCl, 2 mM βME, 25°C (S4C Fig).

Values joined by “and” are separate entries in the source; they are usually repeats but may differ in a detail not shown here. Equal values may be shown once.

Sequence of PX domain of SNX5 (SNX5^PX) (Q9Y5X3 25-172): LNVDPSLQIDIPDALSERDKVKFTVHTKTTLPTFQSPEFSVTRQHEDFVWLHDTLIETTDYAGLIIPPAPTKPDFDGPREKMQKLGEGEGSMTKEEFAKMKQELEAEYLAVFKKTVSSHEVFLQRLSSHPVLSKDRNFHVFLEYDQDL
Sequence of SNX5^PX (Q9Y5X3 20-180): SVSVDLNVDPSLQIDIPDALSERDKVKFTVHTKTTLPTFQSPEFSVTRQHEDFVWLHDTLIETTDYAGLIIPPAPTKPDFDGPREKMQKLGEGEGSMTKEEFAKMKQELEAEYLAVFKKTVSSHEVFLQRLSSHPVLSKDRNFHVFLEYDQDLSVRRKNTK

For the substance CI-MPR (aa21–48) peptide, wild type, the dissociation constant (Kd) (usually the constant that tells how readily two partners part at equilibrium) in assay [1] was 9 µM and 26 µM and 19 µM; in assay [2] it was 13 µM and 22 µM and 19 µM; in assay [3] it was 18 µM and 11 µM and 25 µM; in [4], 18 µM and 15 µM and 21 µM; in [5], 44 µM and 36 µM and 28 µM; in assay [6] it was 22 µM and 17 µM and 15 µM.
As for CI-MPR peptide (aa21–48), the dissociation constant (Kd) with SNX6^PX is 36 µM; with SNX5^PX [7] it was 18 µM; in the assay with SNX32^PX, 18 µM; with SNX5^PX [8], 18 µM; in assay [9], more than 400 µM; with SNX5^PX [10], 18 µM.

The values are drawn from article PMC7082075.
